Residue numbers refer to the chain shown, from its start.
T1: mouse FcγRI (mouse, UniProt P26151 25-297)
T1 construct: also called mFcγRI; mouse FcγR1
T1 sequence: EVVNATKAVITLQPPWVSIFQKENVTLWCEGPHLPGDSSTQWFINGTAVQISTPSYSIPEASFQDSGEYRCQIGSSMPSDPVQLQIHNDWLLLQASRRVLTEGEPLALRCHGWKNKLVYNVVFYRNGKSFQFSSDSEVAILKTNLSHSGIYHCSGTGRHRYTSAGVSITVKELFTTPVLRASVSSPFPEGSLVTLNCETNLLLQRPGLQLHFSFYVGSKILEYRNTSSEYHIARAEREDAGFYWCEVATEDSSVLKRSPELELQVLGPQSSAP

T2: mouse FcγRIIb (mouse, UniProt P08101 30-210)
T2 construct: also called mFcγRIIb; mouse FcγR2b
T2 sequence: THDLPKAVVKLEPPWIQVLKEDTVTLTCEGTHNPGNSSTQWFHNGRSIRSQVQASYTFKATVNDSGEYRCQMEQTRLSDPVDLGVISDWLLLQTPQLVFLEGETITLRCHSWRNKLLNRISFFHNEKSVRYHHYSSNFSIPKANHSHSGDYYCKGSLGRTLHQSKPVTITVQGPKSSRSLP

T3: mouse FcγRIII (mouse, UniProt P08508 31-215)
T3 construct: also called mFcγRIII; mouse FcγR3
T3 chain: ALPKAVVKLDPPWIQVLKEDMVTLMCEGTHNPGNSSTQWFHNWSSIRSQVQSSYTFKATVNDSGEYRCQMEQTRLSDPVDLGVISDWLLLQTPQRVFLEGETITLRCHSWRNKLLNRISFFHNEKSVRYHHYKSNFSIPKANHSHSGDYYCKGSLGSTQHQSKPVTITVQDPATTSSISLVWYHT

B1: Anti-CD154 antibody (SLAPH0336a/SLAPL0336a) with Fc variant LALA+ACT3 (SG1044) (antibody)
heavy: EVQLVESGGGSVKPGGSLKLSCAASGFTFSDHYMYWVRQTPEKRLEWVAIISGGGSYTSYPDSMKGRFTISRDNAKNILHLQMSSLKSEDTAMYYCTRESNGKPGFAYWGQGTLVTVSAASTKGPSVFPLAPSSKSTSGGTAALGCLVKDYFPEPVTVSWNSGALTSGVHTFPAVLQSSGLYSLSSVVTVPSSSLGTQTYICNVNHKPSNTKVDKRVEPKSCDKTHTCPPCPAPEAAGGPSVFLFPPKPKDTLMISRTPEVTCVVVDVSHEDPEVKFNWYVDGVEVHNAKTKPREEQYNSTYRVVSVLTVLHQDWLNGKEYKCKVSNKALPAPIEKTISKAKGQPREPQVYTLPPSREEMTKNQVSLTCLVKGFYPSDIAVEWESNGQPENNYKTTPPVLDSDGSFFLYSKLTVDKSRWQQGNVFSCSVLHEALHAHTTRKELSLSP
light: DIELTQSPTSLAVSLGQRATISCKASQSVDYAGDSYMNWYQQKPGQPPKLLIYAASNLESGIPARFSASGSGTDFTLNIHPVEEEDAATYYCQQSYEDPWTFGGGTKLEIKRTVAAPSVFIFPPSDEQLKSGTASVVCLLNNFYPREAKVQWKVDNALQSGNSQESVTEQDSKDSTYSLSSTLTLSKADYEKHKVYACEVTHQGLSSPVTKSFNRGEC
B2: Anti-CD154 antibody (SLAPH0336a/SLAPL0336a) with Fc variant LALA+ACT3+KAES (SG1105) (antibody)
heavy: B1 heavy with K328A, E335S
light: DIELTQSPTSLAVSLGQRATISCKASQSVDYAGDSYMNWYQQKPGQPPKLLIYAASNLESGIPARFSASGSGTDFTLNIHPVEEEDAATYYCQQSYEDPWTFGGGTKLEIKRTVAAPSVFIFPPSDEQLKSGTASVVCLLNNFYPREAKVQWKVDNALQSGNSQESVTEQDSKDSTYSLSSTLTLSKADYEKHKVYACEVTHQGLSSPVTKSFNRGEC
notes: also called LALA+KAES+ACT3
B3: Anti-CD154 antibody (SLAPH0336a/SLAPL0336a) with Fc variant LALA+ACT5+KAES (SG1106) (antibody)
heavy: B1 heavy with K328A, E335S, T438Y
light: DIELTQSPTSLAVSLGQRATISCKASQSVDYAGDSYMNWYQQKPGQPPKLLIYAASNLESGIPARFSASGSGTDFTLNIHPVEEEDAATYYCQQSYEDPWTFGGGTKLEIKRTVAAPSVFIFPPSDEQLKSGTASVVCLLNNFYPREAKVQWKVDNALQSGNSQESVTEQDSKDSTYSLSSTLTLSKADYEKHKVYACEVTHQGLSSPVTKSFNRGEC
notes: also called LALA+KAES+ACT5
B4: Anti-CD154 antibody (SLAPH0336a/SLAPL0336a) with Fc variant LALA+ACT5 (SG1045) (antibody)
heavy: B1 heavy with T438Y
light: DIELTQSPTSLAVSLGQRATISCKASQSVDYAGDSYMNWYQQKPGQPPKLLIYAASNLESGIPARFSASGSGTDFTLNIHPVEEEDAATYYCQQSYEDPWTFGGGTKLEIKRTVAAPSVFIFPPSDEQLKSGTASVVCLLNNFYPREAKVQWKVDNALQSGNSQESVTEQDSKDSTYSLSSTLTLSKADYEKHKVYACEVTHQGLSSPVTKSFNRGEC

Legend:
human C1q (Calbiochem) = human C1q (Calbiochem) (human, UniProt P02745 23-245; P02746 28-253; P02747 29-245); assay: ELISA: antibody coated on the plate at the concentration shown, human C1q added, detected with HRP anti-human C1q, OD 450 nm
Chain of human C1q (Calbiochem) (P02745 23-245 limits assumed, chain 1 of 3): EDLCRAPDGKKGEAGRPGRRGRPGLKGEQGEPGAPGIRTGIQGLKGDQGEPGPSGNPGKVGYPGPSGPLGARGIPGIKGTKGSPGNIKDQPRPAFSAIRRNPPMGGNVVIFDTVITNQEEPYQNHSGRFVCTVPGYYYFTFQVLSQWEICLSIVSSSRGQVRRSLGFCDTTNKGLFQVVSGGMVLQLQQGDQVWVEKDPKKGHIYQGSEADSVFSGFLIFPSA
Chain of human C1q (Calbiochem) (P02746 28-253 limits assumed, chain 2 of 3): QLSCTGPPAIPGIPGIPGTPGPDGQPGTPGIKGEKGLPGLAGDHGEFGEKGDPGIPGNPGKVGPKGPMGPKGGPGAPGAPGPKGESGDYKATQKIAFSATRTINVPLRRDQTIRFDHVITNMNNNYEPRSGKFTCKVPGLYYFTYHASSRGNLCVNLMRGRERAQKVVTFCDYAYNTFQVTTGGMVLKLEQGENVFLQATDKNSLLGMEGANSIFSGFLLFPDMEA
Chain of human C1q (Calbiochem) (P02747 29-245 limits assumed, chain 3 of 3): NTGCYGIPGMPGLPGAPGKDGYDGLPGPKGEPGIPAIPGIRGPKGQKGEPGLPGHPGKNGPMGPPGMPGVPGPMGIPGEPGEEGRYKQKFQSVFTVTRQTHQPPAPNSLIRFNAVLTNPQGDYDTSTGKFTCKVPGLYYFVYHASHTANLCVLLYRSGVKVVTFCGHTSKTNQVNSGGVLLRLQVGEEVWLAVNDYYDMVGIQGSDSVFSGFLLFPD

Soluble human FcRn = target: T4, Soluble human FcRn (human, UniProt P55899 24-297; P61769 21-119); assay: SPR (Biacore T200, pH 7.4, 25 °C): biotinylated FcRn captured on a CAP chip; antibody injected at 100 nM alone (Ab alone) or as 1:1 complex with trimeric CD154 (CD154 IC); binding level / capture level
T4 construct: also called Biotinylated-FcRn
T4 sequence (P55899 24-297 limits assumed, chain 1 of 2): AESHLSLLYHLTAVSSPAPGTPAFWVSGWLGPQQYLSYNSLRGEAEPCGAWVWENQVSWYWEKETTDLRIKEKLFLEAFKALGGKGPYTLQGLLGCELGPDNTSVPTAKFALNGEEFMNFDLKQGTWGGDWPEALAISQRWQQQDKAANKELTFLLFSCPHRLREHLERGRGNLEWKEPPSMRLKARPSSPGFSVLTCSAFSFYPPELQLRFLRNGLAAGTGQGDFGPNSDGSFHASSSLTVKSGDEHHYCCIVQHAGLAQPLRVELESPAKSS
T4 sequence (P61769 21-119 limits assumed, chain 2 of 2): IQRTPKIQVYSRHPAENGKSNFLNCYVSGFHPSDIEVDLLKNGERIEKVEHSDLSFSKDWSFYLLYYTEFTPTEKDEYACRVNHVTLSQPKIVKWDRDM

mouse FcγRI = target: T1, mouse FcγRI; assay: SPR (Biacore T200, pH 7.4, 25 °C): His-tagged FcγR captured by anti-His antibody; antibody injected at 100 nM alone (Ab alone) or as 1:1 complex with trimeric CD154 (CD154 IC); binding level / capture level [A]
mouse FcγRIIb = target: T2, mouse FcγRIIb; assay: SPR (Biacore T200, pH 7.4, 25 °C): His-tagged FcγR captured by anti-His antibody; antibody injected at 100 nM alone (Ab alone) or as 1:1 complex with trimeric CD154 (CD154 IC); binding level / capture level [B]
mouse FcγRIII = target: T3, mouse FcγRIII; assay: SPR (Biacore T200, pH 7.4, 25 °C): His-tagged FcγR captured by anti-His antibody; antibody injected at 100 nM alone (Ab alone) or as 1:1 complex with trimeric CD154 (CD154 IC); binding level / capture level [C]

Binder | binding result (human C1q (Calbiochem)) | binding result (Soluble human FcRn) | binding result (mouse FcγRI) | binding result (mouse FcγRIIb) | binding result (mouse FcγRIII)
B1 | binds | binds | no binding (tested: 100 nM) | no binding (tested: 100 nM) | no binding (tested: 100 nM)
B2 | binds | binds | no binding (tested: 100 nM) | no binding (tested: 100 nM) | no binding (tested: 100 nM)
B3 | binds | binds | no binding (tested: 100 nM) | no binding (tested: 100 nM) | no binding (tested: 100 nM)
B4 | binds | binds | no binding (tested: 100 nM) | no binding (tested: 100 nM) | no binding (tested: 100 nM)

From patent publication US20190218277A1 (Chugai, published 2019)
